Tests used:
[1] = system: HRF/IgE binding; assay: Competition ELISA of IgE binding to GST-mHRF-coated wells; parameters: species or system mouse; settings: competitor incubated 2 hours
Experimental: To identify an inhibitor of HRF/Ig interactions to dissect the extracellular function (═HRF function as a cytokine) separate from the intracellular functions in vivo settings, the major Ig-interacting HRF sequence was studied as a specific inhibitor of HRF/Ig interactions. IgE molecules were incubated in GST-mHRF-coated wells in the presence or absence (−) of the indicated concentrations of competitors, GST-N19, GST-mHRF or mHRF-His6 for 2 hours. After incubation, bound-IgE was detected by incubation with biotinylated anti-mouse IgE mAb, followed by streptavidin-HRP. […] By contrast, none of the shorter mHRF peptides tested (residues 1-6, 1-12, 5-19, and 9-19) inhibited HRF/IgE binding. GST-N19 inhibited HRF/IgG binding as well.

[2] = system: C57BL/6 mice; assay: OVA-induced mast cell-dependent airway inflammation model; format: in vivo, mouse; settings: intranasal pretreatment before each OVA challenge
Experimental: Mice were sensitized with OVA (10 μg in 0.1 ml saline) at days 0, 7, 14, 21, 28, and 35. Sensitized mice were challenged with OVA (20 μg in 20 μl saline) at days 40, 43 and 46. Some mice were pretreated with GST, GST-N19 (400 μg in PBS), or N19 peptide (40 μg in 2% DMSO-containing PBS) 15 minutes before OVA challenge. Twenty-four hours after the last challenge, lung function in response to methacholine was tested using FlexiVent system (SCIREQ Scientific Respiratory Equipment). Mice were sacrificed and plasma, BAL fluids, and lung tissues were collected. Cells in BAL fluids were counted, and specific cell numbers were calculated after May-Giemsa staining of Cytospin preparations. Immunofluorescence microscopy was performed on membrane-permeabilized and non-permeabilized lung tissues. For staining of lung tissues by staining of H&E and periodic acid-Schiff (PAS), lung tissues were fixed with formalin and embedded in paraffin. For measurement of cytokine levels in lung tissues, lung homogenates were prepared (Oyoshi et al., Immunol. 120:303 (2007)) and cytokines quantified by ELISA. HRF in lung homogenates and plasma was SDS-PAGE and immunoblotting with anti-HRF Ab (Santa Cruz Biotechnology).
Asthma is a type 2 helper T cell-driven, chronic inflammatory lung disease (Wills-Karp, Annu Rev Immunol 17, 255 (1999)). To study HRF involvement in allergic airway inflammation, an airway inflammation model was utilized, in which mast cells are implicated in amplifying antigen-dependent chronic inflammation (Williams, et al., J Exp Med 192, 455 (Aug. 7, 2000)). C57BL/6 mice were first sensitized with OVA (10 μg) at days 0, 7, 14, 21, 28 and 35. At days 40, 43 and 46, mice were intranasally challenged with OVA (20 μg) or PBS. Some mice were intranasally pretreated with GST or GST-N19 (400 μg) before every OVA challenge. Twenty-four hours after the last challenge, mice were sacrificed and BAL fluids and lung tissues were collected. Lung tissues were homogenized.

[3] = system: IgE-sensitized mice; assay: Passive cutaneous anaphylaxis induced by mHRF in IgE-sensitized ears; format: in vivo, mouse; settings: 8 hours after injection in IgE-sensitized ears
Experimental: Mouse ears were first sensitized with 0.5 μg anti-TNP (C38-2 in the right ear and C48-2 in the left ear) IgE. After 24 hours, Evans' blue dye was intravenously (i.v.) injected, and TNP26-BSA (Ag: 0.1 μg) or mHRF-His6 (10 μg) were immediately injected into the ears. The acute (30 minute) reactions were analyzed by measurement of Evans' blue dye leakage. The ear thickness was measured using a micrometer (Mitutoyo) at 0.5, 1, 2, 4, 6, 8, 12, and 24 hours after mHRF-His6challenge. As a negative control, saline was injected into the ears in place of antigen or HRF challenge. IgG-mediated response was performed by sensitization with 2 μg IgG1 (in place of anti-TNP IgE) and challenge with anti-mouse IgG1 Ab (0.6 μg: Southern Biotechnology, in place of TNP26-BSA). Engraftmanet of Kit^W-sh/W-sh mice with BMMCs was performed 6 weeks before study (Nakano, T., et al. J Exp Med 162:1025-1043 (1985)). In some studies, mice were sensitized and stimulated as described above but without Evans blue.
Here, mice were sensitized with the IgE. […] After 30 minutes, mice were sacrificed, and the amount of Evans blue dye leaked from the ears measured. […]
mHRF-His6 (H) was injected in IgE-sensitized ears and LPR was analyzed by measurement of ear thickness at 8 hours after injection. […]
IGELa2 IgE was intradermally injected into ears. […] Eight hours after injection, the ear thickness was measured (FIG. 7).

[4] = system: peritoneal mast cells; assay: β-hexosaminidase release (degranulation); format: cell-based, mouse; settings: cells sensitized with HRF-reactive IgE, 40 minutes
Experimental: Mast cells were sensitized with 0.5 μg/ml IgE overnight. The mast cells were stimulated with TNP26-BSA or mHRF-His6 for 40 minutes in Tyrode's buffer. The amount of β-hexosaminidase (β-hex) in both supernatants and cell pellets was measured. The percentage of β-hex release was calculated as follows: % release=β-hex in supernatants/β-hex in supernatants+β-hex in cell pellets)
These hypersensitivity reactions appear to be dependent on mast cells, as the reactions were abolished in mast cell-deficient Kit^W-sh/W-sh mice and restored in Kit^W-sh/W-sh mice engrafted with WT BMMCs (FIG. 6A). […] Therefore, HRF and HRF-reactive IgE can induce anaphylactic responses in a mast cell- and FcεRI-dependent manner. Consistent with this, peritoneal mast cells sensitized with the HRF-reactive, but not the HRF-nonreactive, IgE were activated upon stimulation with HRF (FIG. 6D). After 40 minutes, both supernatants and cell pellets were collected and β-hexosaminidase release was analyzed (FIG. 6D).

[5] = system: Unimmunized mice; assay: Intranasal HRF in naïve mice, BAL differential cell counting; format: in vivo, mouse; settings: for Lung inflammation: naïve C57BL/6 (WT) mice, 40 μg intranasally three times
Experimental: In light of the presence of HRF-reactive IgG in naïve mice and recent studies reporting the role of mast cells in the initiation of adaptive immune responses (Galli, et al., Nat Immunol 6, 135 (February, 2005)), the effect of HRF on naïve mice was assessed. Unimmunized C57BL/6 (WT), μMT, and FcRγ^−/− mice (n=5 per cohort) were treated intranasally with 40 μg mHRF-His6 three times every third day. PBS served as a negative control. BAL procedures were conducted 24 hours after the last HRF administration. Differential cell counting was performed on cytospin preparations stained with May-Giemsa. […] FcRγ is shared by multiple Fc receptors including FcεRI.

[6] = system: IgE; assay: ELISA with monomeric and dimeric HRF-His6 as capturing agent; format: binding, mouse
Experimental: Monomeric and dimeric HRF-His6 proteins purified by HPLC were coated onto plastic wells. After blocking, 206 (HRF-nonreactive) and IGELa2 (HRFreactive) IgEs were incubated. Bound IgEs were detected by incubation with biotin-conjugated anti-mouse IgE antibody, followed by incubation with horseradish peroxidase-conjugated streptavidin. The absorbance at 450 nm was measured after development of the color. […] The dimerizing ability of HRF with multiple Ig-binding sites strongly indicates the potential of HRF to crosslink Ig-bound Fc receptors.

In the case of “residues 1-12: shorter mHRF peptide, residues 1-12 (MIIYRDLISHDE; UniProt P63028 1-12, looked up, fragment)”, the “Inhibition of IgE binding to immobilized GST-mHRF” value (shortened to “Inhibition of IgE binding”) [1] is reported as “none”.

With “residues 1-6: shorter mHRF peptide, residues 1-6 (MIIYRD; UniProt P63028 1-6, looked up, fragment)” the “Inhibition of IgE binding” value [1] was “none”.

For “residues 5-19: shorter mHRF peptide, residues 5-19 (RDLISHDELFSDIYK; UniProt P63028 5-19, looked up, fragment)”, the “Inhibition of IgE binding” value [1] was “none”.

In the case of “N19 peptide: synthetic non-fusion N19 peptide, N-terminal 19 residue peptide of HRF (MIIYRDLISHDELFSDIYK; UniProt P63028 1-19, looked up, fragment)”, the Airway inflammation [2] is reported as “abrogated”.

For “residues 9-19: shorter mHRF peptide, residues 9-19 (SHDELFSDIYK; UniProt P63028 9-19, looked up, fragment)”, the “Inhibition of IgE binding” value [1] was “none”.

B1: mHRF-His6: C-terminally hexahistidine-tagged recombinant mouse histamine releasing factor (protein)
chain: MIIYRDLISHDELFSDIYKIREIADGLCLEVEGKMVSRTEGAIDDSLIGGNASAEGPEGEGTESTVVTGVDIVMNHHLQETSFTKEAYKKYIKDYMKSLKGKLEEQKPERVKPFMTGAAEQIKHILANFNNYQFFIGENMNPDGMVALLDYREDGVTPFMIFFKDGLEMEKCHHHHHH
For B1, the “Late-phase reaction (LPR), ear swelling” value [3] was “as high as that induced by antigen”, the “Mast cell activation (β-hexosaminidase release)” value [4] was “activated” and the “HRF effects (lung inflammation)” value ([5]; B cell-deficient (μMT) or FcRγ−/− mice) was “not observed”. For the same molecule, the Lung inflammation [5] was “induced weak lung inflammation”, the Lung inflammation ([5]; listed as HRF) was “weak lung inflammation is induced” and the HRF-induced lung inflammation ([5]; naïve FcεRIα−/− mice) was “abrogated or reduced”. For the same molecule, the “Neutrophils and eosinophils in BAL fluids” value ([5]; naïve WT mice) was “increased”, the “Binding to IgE” value ([6]; dimeric form as capturing agent) was “can bind” and the “Binding to IgE” value ([6]; monomeric form as capturing agent) was “can bind”.
